Columns and labels:
[1] = biological target: Influenza virus A/Brisbane/59/2007 (H1N1) (Influenza A virus A/Brisbane/59/2007 (H1N1)); experiment: ELISA on coated viral particles
[2] = biological target: Influenza virus A/California/7/2009pdm (H1N1pdm) (Influenza A virus A/California/7/2009pdm (H1N1pdm)); experiment: ELISA on coated viral particles
[3] = biological target: Influenza virus A/Panama/2007/1999 (H3N2) (Influenza A virus A/Panama/2007/1999 (H3N2)); experiment: ELISA on coated viral particles
[4] = biological target: Influenza virus A/New Caledonia/20/1999 (H1N1) (Influenza A virus A/New Caledonia/20/1999 (H1N1)); experiment: ELISA on coated viral particles
[5] = biological target: Influenza virus A/Indonesia/5/2005/PR8-IBCDC-RG2 (H5N1) (Influenza A virus A/Indonesia/5/2005/PR8-IBCDC-RG2 (H5N1)); experiment: cell-based or functional assay
[6] = biological target: Influenza virus A/Brisbane/59/2007 (H1N1) (Influenza A virus A/Brisbane/59/2007 (H1N1)); experiment: cell-based or functional assay
[7] = biological target: Influenza virus A/Suita/1/2009pdm (H1N1 2009 pandemic) (Influenza A virus A/Suita/1/2009pdm (H1N1pdm)); experiment: cell-based or functional assay
[8] = biological target: Influenza virus A/California/7/2009pdm (H1N1pdm) (Influenza A virus A/California/7/2009pdm (H1N1pdm)); experiment: cell-based or functional assay
[9] = biological target: Influenza virus A/Panama/2007/1999 (H3N2) (Influenza A virus A/Panama/2007/1999 (H3N2)); experiment: cell-based or functional assay

Binder | Binding activity (absorbance at 492 nm) [1] | Binding activity (absorbance at 492 nm) [2] | Binding activity (absorbance at 492 nm) [3] | Binding activity (absorbance at 492 nm) [4] | Neutralizing activity (%) at 100 µg/ml [5] | Neutralizing activity (%) at 250 µg/ml [5] | HI activity [6] | Neutralizing activity (%) at 100 µg/ml [6] | Neutralizing activity (%) at 250 µg/ml [6] | Neutralizing activity (%) at 100 µg/ml [7] | Neutralizing activity (%) at 250 µg/ml [7] | HI activity [8] | Neutralizing activity (%) at 100 µg/ml [9] | Neutralizing activity (%) at 250 µg/ml [9]
Group 55 representative clone F083-305, Fab-cp3-type antibody (Fab, V domains shown) VH: EVQLVESGAEVKKPGSSVKVSCKASGSIFSNYAISWVRQAPGQGLEWMGGIVPMFGTTRFAQKFQGRVTITADESRSTAYMELNNLISEDTAVYYCARAPLIYNWYFDLWGRGTLVTVSS VL: EIVLTQSPSFVSASVGDRVSITCRASQGISSWLAWYQQKPGKAPRLLIYGASNLQSGVPSRFSGSGSGTDYTLTINSLQPEDFATYYCQQARTFPVTFGQGTKLEIK | 2.88 | 1.29 | 0.15 | 3.07 |  |  |  |  |  |  |  |  |  | 
Group 56 representative clone F083-318, Fab-cp3-type antibody (Fab, V domains shown) VH: EVQLVQSGAEVKKPGSSVKVSCQASGSIFSNYAINWVRQAPGQGLEWMGGIVPIFGTTRFAQKFQGRLTITADEPRSTAYMELNNLISEDTAVYYCARAPLIYNWYYDLWGRGTLVTVSS VL: EIVLTQSPSSLSASVGDRVTITCRASQGISNYLAWYQQKPGKVPKLLIYAASTLQSGVPSRFSGSGSGTDFTLTISSLQPEDVATYYCQKYNSAPHTFGPGTKVDIK | 2.85 | 0.71 | 0.16 | 3.01 |  |  |  |  |  |  |  |  |  | 
Group 57 representative clone F083-103, Fab-cp3-type antibody (Fab, V domains shown) VH: QVQLQQSGADVKKAGSSVKVSCKASGRTFGNYAISWVRQAPGQGLEWMGGITPIFGAANYAQKFQGRVTISADLSTRMVYMDLSSLRSDDTAFYYCAGHPTYHYGSAMDYWGQGTLVTVSS VL: QSVLTQPPSVSAAPGQKVTITCSGSSSNIGNNYVSWYQQLPGTAPKLLISEGSNRPSGIPDRFSGSKSGTSATLGITGLQTGDEATYYCATWDDSLSVVLFGGGTRLTVLS | 2.39 | 1.82 | 0.16 | 2.43 |  |  |  |  |  |  |  |  |  | 
Group 59 representative clone F083-351, Fab-cp3-type antibody (Fab, V domains shown) VH: QVQLVQSGADVKKAGSSVKVSCKASGRTFGNYAISWVRQAPGQGLEWMGGITPIFGAANYAQKFQGRVTISADLSTRMVYMDLSSLRSDDTAFYYCAGHPMYHYGSAMDYWGQGTLVTVSS VL: QSVLTQPPSASGTPGQRVSISCFGSRSNVGSSSVNWYQQLPGRAPKLLIQRNDQRPSGVPDRFSGSKSGTSASLAISGLQSDDESTYYCAAWDDSVKSVVFGGGTQLTVLG | 3.09 | 2.62 | 0.21 | 3.21 |  |  |  |  |  |  |  |  |  | 
Group 80 representative clone F083-373, Fab-cp3-type antibody (Fab, V domains shown) VH: QVQLVQSGADVKKPGSSVRVSCKASGRTFGNYAISWVRQAPGQGLEWMGGITPIFGAANYAQKFQGRVTISADLSTTMVYMDLSSLRSDDTAFYYCAGHPTYYYGSPMDYWGQGTLVTVSS VL: EIVLTQSPSSLSASVGDRVTITCRASQSIATYLNWYQQKPGKAPNLLIYAASNLQSGVPSRFSGSGSGTDFTLTISSLQPEDFATYVCLQSYSATLTFGGGTKVEIK | 1.31 | 0.17 | 0.13 | 1.39 |  |  |  |  |  |  |  |  |  | 
Group 65 representative clone F083-366, Fab-PP-type antibody (Fab, V domains shown) VH: QVQLVQSGSEVKKPGSSVKVSCKASRGIFSSYAISWVRQAPGQGLEWMGAVIPMFGTLKYAENFQGRITISADKSMSAAYMELSSLRSEDTAVYYCARNYYGSGTYFNDAFDIWGQGTMVTVSS VL: QSVLTQPPSGSGAPGQRVTISCTGGNSNIGAGYDVNGYQQLPGKAPKLLIYGNNNRPSGVPDRFSGSKSGTSASLAITGLQVEDEAHYYCQSYDNGLSGSVFGGGTQLTVLG |  |  |  |  | -0.8% | -3.9% | > 160 µg/mL | 96.1% | 98% | 13.5% | 19.2% | > 160 µg/mL | -13% | -6.8%
Group 42 representative clone F083-249, Fab-cp3-type antibody (Fab, V domains shown) VH: QVQLVQSGSEVKKPGSSVKVSCKASGVTFSSYAISWVRQAPGQGLEWMGGISPMFGTTRYAQKFQGRVTITADESTRTGFMELSSLRSGDTAVYYCARSPTYYPGALDMWGQGTTVTVSS VL: DVVMTQSPSLLSASVGDRVTITCRASQAIANFVSWFQQKPGEAPKSLIHAASTLQGGVPPRFSGSGYGAVFTLTITNLQPEDFATYFCQQYNSLPFTFGPGTDVEVR | 3.02 | 2.38 | 1.15 | 3.13 |  |  |  |  |  |  |  |  |  | 
Group 36 representative clone F082-243, Fab-PP-type antibody (Fab, V domains shown) VH: QVQLQQSGAEVKKPGSSVKVSCKASGGIFRKNAISWVRQAPGQGLEWMGGIIAIFGTANYAQKFQGRVTITADDSTNTVYMELTSLRYEDTAVYYCARGPNYYENYFDFWGQGTLVTVSS VL: EIVLTQSPSSLSASLRDTVTITCRTSQAITNYLAWYQQRPGKAPKLLIYAASVLQSGVPSRFSGSGSGTDFTLTISSLQPEDFATYYCQKYDSAPYTFGQGTKLEIK |  |  |  |  | 50.6% | 52.9% | > 160 µg/mL | 84.2% | 94.1% | 97.7% | 85.9% | > 160 µg/mL | 7.5% | -2.7%
Group 62 representative clone F083-349, Fab-cp3-type antibody (Fab, V domains shown) VH: QVQLVQSGAEVRKPGSSVKVSCKASGVIFIKFAISWVRQAPGQGLEWMGGIIPMFGTTNYAQKFQGRVTITADGSTNTVYMELSSLTSEDTAVYYCAKEEGYYYGSGPLDSWGQGTLVTVSS VL: DIVMTQSPDFLSVSLGERVTINCKSSQTVLNRSNNKNYLAWYQKKPGQPPRLLLYWSSTRESGVPDRFSGSGSETDFALTITNLQAEDLAVYFCQQFYDMPVTFGGGTKLEIK | 2.93 | 2.79 | 0.15 | 3.17 |  |  |  |  |  |  |  |  |  | 
Group 58 representative clone F083-307, Fab-cp3-type antibody (Fab, V domains shown) VH: QVQLQQSGADVKKPGSSVKVSCKASGGTFGNYAISWVRQAPGQGLEWMGGITPIFGPANYAQRFQGRVTISADISTRTAYMELSSLRSEDTAIYYCARHPTYYFGSAMEYWGQGTLVTVSS VL: SYELTQPPSVSVAPGQTATITCGGDRIGTGPVHWYQQRPGRAPVLIIYGSTHRPSGIPERFSGSKSVNTATLSISGVGVGDEADYYCQVWDTSTAQPIVFGGGTKLTVLS | 3.04 | 2.37 | 0.19 | 3.3 |  |  |  |  |  |  |  |  |  | 
Group 44 representative clone F081-008, Fab-PP-type antibody (Fab, V domains shown) VH: QVQLVQSGAEVKKPGSSVKVSCKASGGTFSSFSTYTISWVRQAPGQGLEWMGRSIPLLGITNYAQKFQGRVTITADISTSTAYMELSSLRSEDTAVYYCARYQSSDYYNSEYFQHWGQGTLVTVSS VL: EIVLTQSPGTLSLSLGERVTLSCRASQNVGTNYLAWYQQKPGQAPRLLIYGASSRATGVPDRFSGSGSGTDFTLTISRLAPEDFAVYYCQQYSSSPLTFGGGTKLEIK |  |  |  |  | 48.8% | 56.5% | > 160 µg/mL | 100% | 100% | 95.3% | 97.7% | > 160 µg/mL | 3.4% | 15.8%
Group 51 representative clone F083-302, Fab-cp3-type antibody (Fab, V domains shown) VH: QVQLVQSGAEVKKPGSSVKVSCEASGATFSSNAFSWVRQAPGQGPEWMGGIITMFRKAEYAQKFQGRVTITAGELGSTAYMEVRSLTFEDTAVYYCARHSGYHLIGYFDSWGQGTLVTVSS VL: QSVLTQPPSVSAAPGQKVTISCSGTTSNIGNNYVSWYQQLPGAAPKLLIYDNNKRPSGIPDRFSGSKSDTSATLGITGLQTGDEADYYCGTWVSSLSVWVFGGGTKLTVLG | 2 | 1.55 | 0.23 | 1.92 |  |  |  |  |  |  |  |  |  | 
Group 2 representative clone F082-220, Fab-PP-type antibody (Fab, V domains shown) VH: QVQLVQSGAEVKKPGSSVKVSCKASGGIFRSNAVSWVRQAPGQGLEWMGGIIAIFGTPKYAQKFQGRVTITADESTSTVYMELSGLRYEDTAVYYCARGPNYYESYFDYWGQGTLVTVSS VL: DIVMTQSPPSLSASVGDRVTITCRASQGISNYLAWYQQKPGKAPKLLIFGASTLHSGVSSRFSGSGSGPDFTLTISSLQPEDAATYYCQKYHSAPLTFGGGTKVEMK |  |  |  |  | 90.6% | 97.1% | > 160 µg/mL | 100% | 100% | 85.3% | 97.7% | > 160 µg/mL | 3.4% | 34.2%
Group 64 representative clone F083-301, Fab-PP-type antibody (Fab, V domains shown) VH: QVQLVQSGAEVKKPGSSVKVSCKASGGIFNSNAISWVRQAPGQGLEWMGGIIGIFGTANYAQKFQGRVTIAADQSTNTVFMELSSLTSEDTAVYFCARSRGYSFGYGTDYFDYWGQGTLVTVSS VL: DIVMTQSPSTLSASVGDRVTITCRASQSISSWLAWYQQAPGKAPKLLIYEASKLQSGVPSRFSATGSGTEFTLTIASLQPEDFAIYYCQHYEAYPFSFGPGTKLDVK |  |  |  |  | 40.6% | 47.1% | > 160 µg/mL | 86.2% | 92.1% | 83.6% | 81.3% | > 160 µg/mL | -2.7% | 7.5%
